The values that follow come from patent US20070101449A1.

Where “and” joins values, the source holds several entries; their conditions need not be identical. Equal values may be shown once.

The target of assay [1] is APP695-derived polypeptide having the modified sequence NFEV at the β secretase cleavage site (UniProt P05067). Kind of assay: cell-based or functional assay.
Assay [2] deals with APP695-derived polypeptide carrying the Swedish mutant NLDA at the β secretase cleavage site (UniProt P05067). Kind of assay: cell-based or functional assay.

For the substance “human β secretase (from UniProt P56817 46-501) (enzyme)”, the levels of Aβ (IP/Western blot of conditioned media of transfected HEK293T cells) (fold over wild-type KMDA) was 15 and 20 in assay [1]; 15 and 20 in assay [2].
